Reference: the supplement of paper PMC12338614
± gives the uncertainty stated by the source.

B1: library; numbered along this chain (parent)
chain: MEVVDPQQLGMFTEGELMSVGMDTFIHRIDSTEVIYQPRRKRAKLIGKYLMGDLLGEGSYGKVKEVLDSETLCRRAVKILKKKKLRRIPNGEANVKKEIQLLRRLRHKNVIQLVDVLYNEEKQKMYMVMEYCVCGMQEMLDSVPEKRFPVCQAHGYFCQLIDGLEYLHSQGIVHKDIKPGNLLLTTGGTLKISDLGVAEALHPFAADDTCRTSQGSPAFQPPEIANGLDTFSGFKVDIWSAGVTLYNITTGLYPFEGDNIYKLFENIGKGSYAIPGDCGPPLSDLLKGMLEYEPAKRFSIRQIRQHSWFRKKHPPAEAPVPIPPSPDTKDRWRSMTVVPYLEDLHGADEDEDLFDIEDDIIYTQDFTVPGQVPEEEASHNGQRRGLPKAVCMNGTEAAQLSTKSRAEGRAPNPARKACSASSKIRRLSACKQQ

Variants of: B1
Experiment: STK11 functional score (HeLa growth suppression), rescaled enrichment; synonymous median = 1, nonsense median = 0 (normalised score)
Conditions: with HeLa; variant type: missense
Procedure, shortened: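 In HeLa, Bxb1 integrated POPCode codon-randomised libraries of codon-optimised STK11 at an AAVS1 landing pad; three regions were each transfected three times. Integrants, marked as BFP-negative and mCherry-positive, were FACS-sorted 4–5 days after electroporation and expanded for about two weeks before tiled gDNA amplicons were sequenced on NextSeq (~2 million reads per tile). Each functional score is a post/pre-selection log ratio corrected to wild type, rescaled to the synonymous and nonsense medians, and merged across codons and replicate transfections, with error estimated by bootstrapping.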

Row | Variant | STK11 functional score
1 | MEVVDPQQLGMFTEGELMSVGMDTFIHRIDSTEVIYQPRRKRAKLIGKYLMGDLLGEGSYGKVKEVLDSETLCRRAPKILKKKKLRRIPNGEANVKKEIQLLRRLRHKNVIQLVDVLYNEEKQKMYMVMEYCVCGMQEMLDSVPEKRFPVCQAHGYFCQLIDGLEYLHSQGIVHKDIKPGNLLLTTGGTLKISDLGVAEALHPFAADDTCRTSQGSPAFQPPEIANGLDTFSGFKVDIWSAGVTLYNITTGLYPFEGDNIYKLFENIGKGSYAIPGDCGPPLSDLLKGMLEYEPAKRFSIRQIRQHSWFRKKHPPAEAPVPIPPSPDTKDRWRSMTVVPYLEDLHGADEDEDLFDIEDDIIYTQDFTVPGQVPEEEASHNGQRRGLPKAVCMNGTEAAQLSTKSRAEGRAPNPARKACSASSKIRRLSACKQQ [V77P] | 0.512 ± 0.16
2 | MEVVDPQQLGMFTEGELMSVGMDTFIHGIDSTEVIYQPRRKRAKLIGKYLMGDLLGEGSYGKVKEVLDSETLCRRAVKILKKKKLRRIPNGEANVKKEIQLLRRLRHKNVIQLVDVLYNEEKQKMYMVMEYCVCGMQEMLDSVPEKRFPVCQAHGYFCQLIDGLEYLHSQGIVHKDIKPGNLLLTTGGTLKISDLGVAEALHPFAADDTCRTSQGSPAFQPPEIANGLDTFSGFKVDIWSAGVTLYNITTGLYPFEGDNIYKLFENIGKGSYAIPGDCGPPLSDLLKGMLEYEPAKRFSIRQIRQHSWFRKKHPPAEAPVPIPPSPDTKDRWRSMTVVPYLEDLHGADEDEDLFDIEDDIIYTQDFTVPGQVPEEEASHNGQRRGLPKAVCMNGTEAAQLSTKSRAEGRAPNPARKACSASSKIRRLSACKQQ [R28G] | 0.685 ± 0.16
3 | MEVVDPQQLGMFTEGELMSVGMDTFIHRIDSTEVIYQPRRKRAKLIGKYLMGDLLGEGSYGKVKEVLDSETLCRRAVKILKKKKLRRIPNGEANVKKEIQLLRRLRHKNVIQLVDVLYNEEKQKMYMVMEYCVCGMQEMLDSVPEKRFPVCQAHGYFCQLIDGLEYLHSQGIVHKDIKPGNLLLTTGGTLKISDLGVAEALHPFAADDTCRTSQGSPAFQPPEIANGLDTFSGFKVDIWSAGVTLYNITTGLYPFEGDNIYKLFENIGKGSYAIPGDCGPPLSDLLKGMLEYEPAKRFSIRQIRQHSWFRKKHPPAEAPVPIPPSPDTKDRWRSMTVVPYLEDLHGADEDEDLFDIEDDIIYTQDFTVPGQVPEEEASHNGQRRGLPWAVCMNGTEAAQLSTKSRAEGRAPNPARKACSASSKIRRLSACKQQ [K388W] | 1.5 ± 0.15
4 | MEVVDPQQLGMFTEGELMSVGMDTFIHRIDSTEVIYQPRRKRAKLIGKYLMGDLLGEGSYGKVKEVLDSETLCRRAVKILKKKKLRRIPNGEANVKKEIQLLRRLRHKNVIQLVDVLYNEEKQKMLMVMEYCVCGMQEMLDSVPEKRFPVCQAHGYFCQLIDGLEYLHSQGIVHKDIKPGNLLLTTGGTLKISDLGVAEALHPFAADDTCRTSQGSPAFQPPEIANGLDTFSGFKVDIWSAGVTLYNITTGLYPFEGDNIYKLFENIGKGSYAIPGDCGPPLSDLLKGMLEYEPAKRFSIRQIRQHSWFRKKHPPAEAPVPIPPSPDTKDRWRSMTVVPYLEDLHGADEDEDLFDIEDDIIYTQDFTVPGQVPEEEASHNGQRRGLPKAVCMNGTEAAQLSTKSRAEGRAPNPARKACSASSKIRRLSACKQQ [Y126L] | 0.421 ± 0.13
5 | MEVVDPQQLGMFTEGELMSVGMDTFIHRIDSTEVIYQPRRKRAKLIGKYLMGDLLGEGSYGKVKEVLDSETLCRRAVKILKKKKLRRIPNGEANVKKEIQLLRRLRHKNVIQLVDVLYNEEKQKMYMVMEYCVCGMQEMLDSVPEKRFPVCQAHGYFCQLIDGLEYLHSQGIVHKDIKPGNLLLTTGGTLKISDLGVAEALHPFAADDTCRTSQGSPAFQPPEIANGLDTFSGFKVDIWSAGVTLYNITTGLYPFEGDNIYKLFENIGKGSYAIPGDCGPPLSDLLKGMLEYEPAKRFSIRQIRQHSWFRKKHPPAEAPVPIPPSPDTKDRWRSQTVVPYLEDLHGADEDEDLFDIEDDIIYTQDFTVPGQVPEEEASHNGQRRGLPKAVCMNGTEAAQLSTKSRAEGRAPNPARKACSASSKIRRLSACKQQ [M335Q] | 1.01 ± 0.25
6 | MEVVDPQQLGMFTEGELMSVGMDTFIHRIDSTEVIYQPRRKRAKLIGKYLMGDLLGEGSYGKVKEVLDSETLCRRAVKILKKKKLRRIPNGEANVKKEIQLLRRLRHKNVIQLVDVLYNEEKQKMYMVMEYCVCGMQEMLDSVPEKRFPVCQAHGYFCQLIDGLEYLHSQGIVHKDIKPGNLLLTTGGTLKISDLGVAEALHPFAADDTCRTSQGSPAFQPPENANGLDTFSGFKVDIWSAGVTLYNITTGLYPFEGDNIYKLFENIGKGSYAIPGDCGPPLSDLLKGMLEYEPAKRFSIRQIRQHSWFRKKHPPAEAPVPIPPSPDTKDRWRSMTVVPYLEDLHGADEDEDLFDIEDDIIYTQDFTVPGQVPEEEASHNGQRRGLPKAVCMNGTEAAQLSTKSRAEGRAPNPARKACSASSKIRRLSACKQQ [I224N] | 1.47 ± 0.42
7 | MEVVDPQQLGMFTEGELMSVGMDTFIHRIDSTEVIYQPRRKRAKLIGKYLMGDLLGEGSYGKVKEVLDSETLCRRAVKILKKKKLRRIPNGEANVKKEIQLLRRLRHKNVIQLVDVLYNEEKQKMYMVMEYCVCGMQEMLDSVPEKRFPVCQAHGYFCQLIDGLEYLHSQGIVHKDIKPGNLLLTTGGTLKISDLGVAEALHPFAADDTCRTSQGSPAFQPPEIANGLDTFSGFKVDIWSAGVTLYNITTGLYPFEGDNIYKLFENIGKGSYAIPGDCGPPLSDLLKGMLEYEPAKRFSIRQIRQHSWFRKKHPPAEAPVPIPPSPDTKDPWRSMTVVPYLEDLHGADEDEDLFDIEDDIIYTQDFTVPGQVPEEEASHNGQRRGLPKAVCMNGTEAAQLSTKSRAEGRAPNPARKACSASSKIRRLSACKQQ [R331P] | 1.54 ± 0.22
8 | MEVVDPQQLGMFTEGELMSVGMDTFIHRIDSTEVIYQPRRKRAKLIGKYLMGDLLGEGSYGKVKEVLDSETLCRRAVKILKKKKLRRIPNGEANVKKEIQLLRRLRHKNVIQLVDVLYNEEKQKMYMVMEYCVCGMQEMLDSVPEKRFPVCQAHGYFCQLIDGLEYLHSQGIVHKDIKPGNLLLTTGGTLKISDLGVAEALHPFAADDTCRTSQGSPAFQPPEIANGLDTFSGFKVDIWSAGVTLYNITTGLYPFEGDNIYKLFENIGKGSYAIPGDCGPPLSDLLKGMLEYEPAKRFSIRQIRQHSWFRKKHPPAEAPVPIPPSPDTKDRWRSMTVVPYLEDLHGADEDEDLFDIEDDIIYTQDFTVPGQVPEEEASHNGQRRGLPKAVCMNGTEYAQLSTKSRAEGRAPNPARKACSASSKIRRLSACKQQ [A397Y] | 1.38 ± 0.46
9 | MEVVDPQQLGMFTEGELMSVGMDTFIHRIDSTEVIYQPRRKRAKLIGKYLMGDLLGEGSYGKVKEVLDSETLCRRAVKILKKKKLRRIPNGEANVKKEIQLLRRLRHKNVIQLVDVLWNEEKQKMYMVMEYCVCGMQEMLDSVPEKRFPVCQAHGYFCQLIDGLEYLHSQGIVHKDIKPGNLLLTTGGTLKISDLGVAEALHPFAADDTCRTSQGSPAFQPPEIANGLDTFSGFKVDIWSAGVTLYNITTGLYPFEGDNIYKLFENIGKGSYAIPGDCGPPLSDLLKGMLEYEPAKRFSIRQIRQHSWFRKKHPPAEAPVPIPPSPDTKDRWRSMTVVPYLEDLHGADEDEDLFDIEDDIIYTQDFTVPGQVPEEEASHNGQRRGLPKAVCMNGTEAAQLSTKSRAEGRAPNPARKACSASSKIRRLSACKQQ [Y118W] | 0.378 ± 0.09
10 | MEVVDPQQLGMFTEGELMSVGMDTFIHRIDSTEVIYQPRRKRAKLIGKYLMGDLLGEGSYGKVKEVLDSETLCRRAVKILKKKKLRRIPNGEANVKKEIQLLRRLRHKNVIQLVDVLYNEEKQKMYMVMEYCVCGMQEMLDSVPEKRFPRCQAHGYFCQLIDGLEYLHSQGIVHKDIKPGNLLLTTGGTLKISDLGVAEALHPFAADDTCRTSQGSPAFQPPEIANGLDTFSGFKVDIWSAGVTLYNITTGLYPFEGDNIYKLFENIGKGSYAIPGDCGPPLSDLLKGMLEYEPAKRFSIRQIRQHSWFRKKHPPAEAPVPIPPSPDTKDRWRSMTVVPYLEDLHGADEDEDLFDIEDDIIYTQDFTVPGQVPEEEASHNGQRRGLPKAVCMNGTEAAQLSTKSRAEGRAPNPARKACSASSKIRRLSACKQQ [V150R] | 1.17 ± 0.25
11 | MEVVDPQQLGMFTEGELMSVGMDTFIHRIDSTEVIYQPRRKRAKLIGKYLMGDLLGEGSYGKVKEVLDSETLCRRAVKILKKKKLRRIPNGEANVKKEIQLLRRLRHKNVIQLVDVLYNEEKQKMYMVMEYCVCGMQEMLDSVPEKRFPVCQAHGYFCQLIDGLEYLHSQGIVHKDIKPGNLLRTTGGTLKISDLGVAEALHPFAADDTCRTSQGSPAFQPPEIANGLDTFSGFKVDIWSAGVTLYNITTGLYPFEGDNIYKLFENIGKGSYAIPGDCGPPLSDLLKGMLEYEPAKRFSIRQIRQHSWFRKKHPPAEAPVPIPPSPDTKDRWRSMTVVPYLEDLHGADEDEDLFDIEDDIIYTQDFTVPGQVPEEEASHNGQRRGLPKAVCMNGTEAAQLSTKSRAEGRAPNPARKACSASSKIRRLSACKQQ [L184R] | 0.329 ± 0.17
12 | MEVVDPQQLGMFTEGELMSVGMDTFIHRIDSTEVIYQPRRKRAKLIGKYLMGDLLGEGSYGKVKEVLDSETLCRRAVKILKKKKLRRIPNGEANVKKEIQLLRRLRHKNVIQLVDVLYNEEKQKMYMVMEYCVCGMQEMLDSVPEKRFPVCQAHGYFCQLIDGLEYLHSQGIVHKDIKPGNLLLTTGGTLKISDLGVAEALHPFAADDTCRTSQGSPAFQPPEIANGLDTFSGFKVDIWSAGVDLYNITTGLYPFEGDNIYKLFENIGKGSYAIPGDCGPPLSDLLKGMLEYEPAKRFSIRQIRQHSWFRKKHPPAEAPVPIPPSPDTKDRWRSMTVVPYLEDLHGADEDEDLFDIEDDIIYTQDFTVPGQVPEEEASHNGQRRGLPKAVCMNGTEAAQLSTKSRAEGRAPNPARKACSASSKIRRLSACKQQ [T244D] | -0.0204 ± 0.1
13 | MEVVDPQQLGMFTEGELMSVGMDTFIHRVDSTEVIYQPRRKRAKLIGKYLMGDLLGEGSYGKVKEVLDSETLCRRAVKILKKKKLRRIPNGEANVKKEIQLLRRLRHKNVIQLVDVLYNEEKQKMYMVMEYCVCGMQEMLDSVPEKRFPVCQAHGYFCQLIDGLEYLHSQGIVHKDIKPGNLLLTTGGTLKISDLGVAEALHPFAADDTCRTSQGSPAFQPPEIANGLDTFSGFKVDIWSAGVTLYNITTGLYPFEGDNIYKLFENIGKGSYAIPGDCGPPLSDLLKGMLEYEPAKRFSIRQIRQHSWFRKKHPPAEAPVPIPPSPDTKDRWRSMTVVPYLEDLHGADEDEDLFDIEDDIIYTQDFTVPGQVPEEEASHNGQRRGLPKAVCMNGTEAAQLSTKSRAEGRAPNPARKACSASSKIRRLSACKQQ [I29V] | 1.68 ± 0.14
14 | MEVVDPQQLGMFTEGELMSVGMDTFIHRIDSTEVIYQPRRKRAKLIGKYLMGDLLGEGSYGKVKEVLDSETLCRRAVKILKKKKLRRIPNGEANVKKEIQLLRRLRHKNVIQLVDVLYNEEKQKMYMVTEYCVCGMQEMLDSVPEKRFPVCQAHGYFCQLIDGLEYLHSQGIVHKDIKPGNLLLTTGGTLKISDLGVAEALHPFAADDTCRTSQGSPAFQPPEIANGLDTFSGFKVDIWSAGVTLYNITTGLYPFEGDNIYKLFENIGKGSYAIPGDCGPPLSDLLKGMLEYEPAKRFSIRQIRQHSWFRKKHPPAEAPVPIPPSPDTKDRWRSMTVVPYLEDLHGADEDEDLFDIEDDIIYTQDFTVPGQVPEEEASHNGQRRGLPKAVCMNGTEAAQLSTKSRAEGRAPNPARKACSASSKIRRLSACKQQ [M129T] | 0.97 ± 0.14
